Data as given in the supplement of paper PMC7877785.
± gives the uncertainty stated by the source.

Assay: self-splicing fitness, log relative to wild type (ln ratio); higher = more splicing; Tetrahymena group I intron in knt gene, E. coli kanamycin selection, DiMSum; sequences stand for … in CUCUCU…GGAGGGAAAAGUUAUCAGGCAUGCACCUGGUAGCUAGUCUUUAAACCAAUAGAUUGCAUCGGUUUAAAAGGCAAGACCGUCAAAUUGCGGGAAAGGGGUCAACAGCCGUUCAGUACCAAGUCUCAGGGGAAACUUUGAGAUGGCCUUGCAAAGGGUAUGGUAAUAAGCUGACGGACAUGGUCCUAACCACGCAGCCAAGUCCUAAGUCAACAGAUCUUCUGUUGAUAUGGAUGCAGUUCACAGACUAAAUGUCGGUCGGGGAAGAUGUAUUCUUCUCAUAAGAUAUAGUCGGACCUCUCCUUAAUGGGAGCUAGCGGAUGAAGUGAUGCAACACUGGAGCCGCUGGGAACUAAUUUGUAUGCGAAAGUAUAUUGAUUAGUUUUGGAGUACUCGUGGUCG
How it was run: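 DiMSum derived fitness as the error-weighted combination of fold changes across replicates, kanamycin versus no kanamycin, normalised to wild type. E. coli BL21(DE3) held the library, which randomised all eight P1ex-region intron nucleotides within the knt kanamycin-resistance gene on pET-22b(+). Six replicate transformations grew overnight at 37°C or 30°C on LB agar with or without 25 μg/mL kanamycin, also containing 100 μg/mL carbenicillin, 50 μM IPTG and 0.2% rhamnose, and pooled colonies were amplicon-sequenced on an Illumina HiSeq 2500.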

| Sequence | self-splicing fitness (ln) (30 °C) | self-splicing fitness (ln) (37 °C) |
| --- | --- | --- |
| UGCCAGCAAUAUUACGGAAU | -2.74 ± 0.15 | -1.95 ± 0.11 |
| UGCCAGCAAUAUUACGGCAU | -2.48 ± 0.15 | -3.23 ± 0.26 |
| UGCCAGCAAUAUUACGGCCC | -0.651 ± 0.12 | -0.528 ± 0.17 |
| UGCCAGCAAUAUUACGGCGC | -3.8 ± 0.27 | -3.04 ± 0.23 |
| UGCCAGCAAUAUUACGGUCC | -0.84 ± 0.2 | 0.136 ± 0.2 |
| UGCCAGCAAUAUUACGUGCU | -3.14 ± 0.11 | -1.48 ± 0.1 |
| UGCCAGCAAUAUUACGUUUG | -2.35 ± 0.092 | -0.857 ± 0.12 |
| UGCGAGCAAUAUUACGAAGA | -3.24 ± 0.37 | -1.97 ± 0.28 |
| UGCGAGCAAUAUUACGACAA | -1.55 ± 0.3 | -0.809 ± 0.2 |
| UGCGAGCAAUAUUACGACAG | -2.55 ± 0.21 | -1.29 ± 0.18 |
| UGCGAGCAAUAUUACGAGCA | -1.98 ± 0.18 | -2.37 ± 0.22 |
| UGCGAGCAAUAUUACGAGUG | -2.85 ± 0.17 | -2.32 ± 0.28 |
| UGCGAGCAAUAUUACGCCGA | – | -1.26 ± 0.4 |
| UGCGAGCAAUAUUACGCGGC | -3.44 ± 0.33 | -3.46 ± 0.46 |
| UGCGAGCAAUAUUACGCUAG | -2.68 ± 0.45 | – |
| UGCGAGCAAUAUUACGCUCG | -2.91 ± 0.22 | -1.92 ± 0.23 |
| UGCGAGCAAUAUUACGGAAG | – | -2.26 ± 0.34 |
| UGCGAGCAAUAUUACGGAUA | -2.36 ± 0.27 | -2.08 ± 0.36 |
| UGCGAGCAAUAUUACGGAUG | -3.65 ± 0.16 | -2.02 ± 0.14 |
| UGCGAGCAAUAUUACGGCAU | -2.64 ± 0.27 | – |
| UGCGAGCAAUAUUACGGCGG | -1.21 ± 0.084 | -0.816 ± 0.13 |
| UGCGAGCAAUAUUACGGCUA | 0.388 ± 0.12 | 0.499 ± 0.15 |
| UGCGAGCAAUAUUACGGUAU | -5.17 ± 0.38 | -2.32 ± 0.19 |
| UGCGAGCAAUAUUACGGUUG | -1.51 ± 0.16 | -1.82 ± 0.26 |
| UGCGAGCAAUAUUACGUAGC | -2.36 ± 0.27 | -2.05 ± 0.38 |
| UGCGAGCAAUAUUACGUCGG | – | -1.91 ± 0.26 |

| Sequence | self-splicing fitness (ln) (30 °C) | self-splicing fitness (ln) (37 °C) |
| --- | --- | --- |
| UGCGAGCAAUAUUACGUUCU | -1.68 ± 0.12 | -2.05 ± 0.14 |
| UGCGAGCAAUAUUACGUUUU | -5.01 ± 0.45 | -3.25 ± 0.24 |
| UGCUAGCAAUAUUACGAAGA | – | -2.09 ± 0.2 |
| UGCUAGCAAUAUUACGAAGU | -2.88 ± 0.3 | -2.51 ± 0.49 |
| UGCUAGCAAUAUUACGACUA | -0.649 ± 0.16 | -0.872 ± 0.14 |
| UGCUAGCAAUAUUACGAGGU | -2.94 ± 0.27 | -3.27 ± 0.39 |
| UGCUAGCAAUAUUACGAUAC | -2.57 ± 0.28 | -1.93 ± 0.28 |
| UGCUAGCAAUAUUACGAUGA | -1 ± 0.1 | -1.2 ± 0.09 |
| UGCUAGCAAUAUUACGCGGU | -4.3 ± 0.42 | -2.36 ± 0.31 |
| UGCUAGCAAUAUUACGGACG | 0.0612 ± 0.08 | 0.414 ± 0.099 |
| UGCUAGCAAUAUUACGGCCC | -1.72 ± 0.23 | -0.878 ± 0.32 |
| UGCUAGCAAUAUUACGGGCA | -3.8 ± 0.25 | -2.02 ± 0.19 |
| UGCUAGCAAUAUUACGGUCC | -2.01 ± 0.19 | 0.11 ± 0.21 |
| UGCUAGCAAUAUUACGGUCU | -0.539 ± 0.084 | -0.14 ± 0.08 |
| UGCUAGCAAUAUUACGGUUC | -2.49 ± 0.16 | -1.69 ± 0.14 |
| UGCUAGCAAUAUUACGUAAC | -3.31 ± 0.28 | -1.84 ± 0.29 |
| UGCUAGCAAUAUUACGUAGU | -3.35 ± 0.2 | -2.71 ± 0.25 |
| UGCUAGCAAUAUUACGUCGU | -2.15 ± 0.14 | -3.03 ± 0.31 |
| UGGAAGCAAUAUUACGAAAG | -1.72 ± 0.16 | -0.893 ± 0.2 |
| UGGAAGCAAUAUUACGAAGA | -2.23 ± 0.28 | -1.01 ± 0.28 |
| UGGAAGCAAUAUUACGACAG | -0.462 ± 0.13 | -0.603 ± 0.19 |
| UGGAAGCAAUAUUACGACAU | -2.825 ± 0.021 | -1.92 ± 0.035 |
| UGGAAGCAAUAUUACGACCA | -0.871 ± 0.18 | -0.92 ± 0.21 |
| UGGAAGCAAUAUUACGAGGU | -2.77 ± 0.42 | -2.08 ± 0.4 |
| UGGAAGCAAUAUUACGAGUA | -1.94 ± 0.22 | -1.13 ± 0.17 |
| UGGAAGCAAUAUUACGAUCU | -0.0165 ± 0.12 | -0.454 ± 0.15 |

| Sequence | self-splicing fitness (ln) (30 °C) | self-splicing fitness (ln) (37 °C) |
| --- | --- | --- |
| UGGAAGCAAUAUUACGAUGA | -0.768 ± 0.18 | -0.0449 ± 0.17 |
| UGGAAGCAAUAUUACGAUGC | -1.67 ± 0.25 | -1.13 ± 0.31 |
| UGGAAGCAAUAUUACGCACG | -0.874 ± 0.12 | 0.34 ± 0.15 |
| UGGAAGCAAUAUUACGCAUA | -1.68 ± 0.17 | -0.329 ± 0.14 |
| UGGAAGCAAUAUUACGCUGG | -1.74 ± 0.12 | -1.26 ± 0.14 |
| UGGAAGCAAUAUUACGGCAA | -1.72 ± 0.39 | 0.0721 ± 0.21 |
| UGGAAGCAAUAUUACGGUCG | -0.0238 ± 0.081 | 0.332 ± 0.11 |
| UGGAAGCAAUAUUACGGUUU | -4.66 ± 0.34 | -2.59 ± 0.21 |
| UGGAAGCAAUAUUACGUACG | -0.898 ± 0.11 | 0.202 ± 0.13 |
| UGGAAGCAAUAUUACGUAGC | -2.29 ± 0.21 | -0.661 ± 0.24 |
| UGGAAGCAAUAUUACGUUAA | -0.681 ± 0.36 | -0.67 ± 0.3 |
| UGGAAGCAAUAUUACGUUUC | -2.56 ± 0.24 | -2.82 ± 0.38 |
| UGGCAGCAAUAUUACGAACG | -0.0867 ± 0.16 | 0.145 ± 0.2 |
| UGGCAGCAAUAUUACGAAUU | -3.42 ± 0.21 | -2.47 ± 0.22 |
| UGGCAGCAAUAUUACGAUAG | -2.32 ± 0.098 | -0.473 ± 0.094 |
| UGGCAGCAAUAUUACGAUCU | -0.344 ± 0.11 | -0.112 ± 0.11 |
| UGGCAGCAAUAUUACGCAUA | -0.869 ± 0.096 | -0.265 ± 0.1 |
| UGGCAGCAAUAUUACGCCAU | -3.71 ± 0.25 | – |
| UGGCAGCAAUAUUACGCGAC | -2.66 ± 0.35 | -1.64 ± 0.44 |
| UGGCAGCAAUAUUACGCGCG | -0.287 ± 0.064 | 0.0127 ± 0.089 |
| UGGCAGCAAUAUUACGCGGA | -1.48 ± 0.098 | -0.878 ± 0.095 |
| UGGCAGCAAUAUUACGGAUC | -2.22 ± 0.24 | -1.99 ± 0.46 |
| UGGCAGCAAUAUUACGGCCC | -1.18 ± 0.15 | -0.287 ± 0.21 |
| UGGCAGCAAUAUUACGGGGC | -3.67 ± 0.47 | -2.18 ± 0.4 |
| UGGCAGCAAUAUUACGGUAU | -3.72 ± 0.24 | -1.73 ± 0.17 |
